Measured values reported in US10677782B2, “Methods of determining interferon having direct inhibitory effects on tumors and uses thereof” (SUPERLAB FAR EAST LIMITED, priority 2013, dated 2020).

Columns and labels:
[1] = Tolerability and body weight of tumor-bearing mice, Example 3; format: in vivo; settings: 0.05-0.15 mg/mouse i.t. every other day, 28 days
Description: Animals were assigned to treatment groups randomly. Initially, all animals were placed in one large animal cage. For assignment to the study, they were later separately housed, with 6 animals per cage per treatment group. Groups 1 and 2 are Control groups in which the animals were each administered the vehicle every other day after the first treatment. […] The animals in Groups 4, 5 and 6 were each given rSIFN-co every other day after the first treatment at 0.15 mg/mouse (Group 4) or 0.10 mg/mouse (Group 5) or 0.05 mg/mouse (Group 6), respectively. Tumor growth was monitored by measuring the length and width of each tumor twice a week during the course of the study. Each animal was also weighed twice a week during the course of the study.
This study was conducted as in Example 1, except as specifically indicated otherwise. Human colon cancer xenografts were first established and prepared in a similar manner as in Example 1, by inoculating 5×10^6 HT-29 cells subcutaneously into nude mice and passaging the well-grown xenografts twice in nude mice. Then, 1.5 mm^3 fragments were prepared for s.c. implantation into the test animals. The body weight of the animals averaged 20±2 g at dose initiation In contrast to Example 1, the animals used in this study were all female. […]

SW620 tumor cells = experiment: Cell viability over 1-6 days, MTT assay; format: cell-based, human; settings: 10 μg/ml
Description: The cell survival rate was evaluated in a standard MTT assay (3-(4,5-dimethylthiazol-2-yl)-2,5-diphenyltetrazolium bromide assay, Sigma, St. Louis, Mo.). For the assay, about 20 μl MTT (at 4 mcg/ml) was added to each well. The cells were incubated at 37° C. for 4 hr. After that, the supernatant of each well was drawn off carefully and then an equal volume (150 microliter) of dimethyl sulfoxide (DMSO) was added to each well and mixed thoroughly on a shaker for 15 min. The absorbance from the plates was read at 595 nm with a Thermo Scientific Microplate Reader (Thermo Fisher Scientific Inc., Lowell, Mass.). The relative cell viability was calculated as follows: Cell viability=(Treated group(OD595) minus blank(OD595))/(Control group(OD595) minus blank(OD595))×100%.

CD24 mRNA in A549 cells = experiment: qPCR of Wnt pathway target genes in A549 cells; format: cell-based, human; settings: 10 μg/ml, 24 hr; Mock control set at 1
Description: After 24 hr of treatment, cellular total mRNA was isolated using TRIZOL Reagent and cDNA was synthesized and further subjected to qPCR, using specific primers of four (4) Wnt signaling downstream genes, Axin2, CD24, Survivin and ID2. Experiments were conducted in triplicate and normalized with the Mock group.
Total mRNA was isolated using TRIZOL Reagent (Invitrogen, Carlsbad, Calif.) according to the manufacturer's instructions. Complementary DNA (cDNA) was synthesized using a RT-PCR Kit (Cat #: FSQ-101, TOYOBO, Japan) according to the manufacturer's instructions and then subjected to qPCR with a SYBR Green PCR kit (Cat #: QPK-201, TOYOBO, Japan). The primers of the four Wnt pathway target genes were as follows: Axin2 sense primer: 5′-[…]-3′ (SEQ ID NO:8) and antisense primer: 5′-[…]-3′ (SEQ ID NO: 9); CD24 sense primer: 5′-[…]-3′ (SEQ ID NO: 10) andantisense primer: 5′-[…]-3′ (SEQ ID NO: 11); Survivin sense primer: 5′-[…]-3′ (SEQ ID NO: 12) and antisense primer: 5′-[…]-3′ (SEQ ID NO: 13) and ID2 sense primer: 5′-[…]-3′ (SEQ ID NO: 14) and antisense primer: 5′-[…]-3′ (SEQ ID NO: 15).
The amplification protocol consisted of incubations at 95° C. for 1 minute, 40 cycles (95° C. for 15 seconds, 60° C. for 15 seconds, 72° C. for 30 seconds). Incorporation of the SYBR Green dye into PCR products was monitored in real time with a Bio-Rad Detection System and subsequently analyzed using Bio-Rad CFX manager 2.1 software. The samples were pooled for each condition and run in duplicate. Treated samples were compared to Mock using the 2^−ΔΔCt method and plotted as fold change. GAPDH was used as the normalization control.

[2] = tested on: procaspase-3, cleaved caspase-3, procaspase-8, cleaved caspase-8, PARP in SW620 cells; experiment: Apoptosis-related molecular markers by Western Blot; format: cell-based, human; settings: 24 hr or 48 hr; interferons at 10 mcg/ml
Excerpt: (§1) Thereafter, apoptosis-related molecular markers were monitored by Western Blot. The primary antibodies used were mouse monoclonal anti-beta-tubulin (1:2000, Cat #: CW0098A) and mouse monoclonal anti-GAPDH (1:2000, Cat #: CW0100A) (Kangwei Biotechnology, China); mouse monoclonal anti-PARP (1:1000, Cat #: se-2007, Santa Cruz Biotechnology, Inc.); rabbit monoclonal anti-procaspase 3 (1:1000, Cat #: 9665), and rabbit polyclonal anti-cleaved caspase 3 (1:1000, Cat #: 9661) (Cell Signaling Technology, USA); goat polyclonal anti-procaspase 8 (1:1000, Cat #: sc-6136, Santa Cruz Biotechnology, Inc); rabbit monoclonal anti-cleaved caspase 8 (1:1000, Cat #: 9496) (Cell Signaling Technology, USA).

[3] = tested on: procaspase-3, cleaved caspase-3, procaspase-8, cleaved caspase-8, PARP in A549 cells; experiment: as above; format: cell-based, human; settings: 24 hr or 48 hr; interferons at 10 mcg/ml
Excerpt: as §1

different cancer cells = experiment: Cell viability, Am-Blue assay, 48 hr, across the cancer cell lines tested; format: cell-based, human; settings: 100 mcg/ml, any of the cancer cell lines
Description: Cell culture and reagents human lung cancer cell lines (A549, H1299, H460, Calu-1), human liver cancer cell lines (SMMC-7721, Huh-7, CL-1), human cervical carcinoma cell line (Hela), human breast cancer cell line (MDA-MB-231), human pancreatic cancer cell line (PANC-1) and human colon cancer cell lines (SW620, HT29, SW480) were purchased from the Shanghai Cell Collection (Shanghai, China). The above cell lines were cultured in 5% CO2 at 37° C. in corresponding complete growth medium formulated by the Shanghai Cell Collection, with 10% heat-inactivated fetal bovine serum (Biochrom, Germany), supplemented with 4 mM glutamine, 50 U/ml penicillin and […] streptomycin.
About 5×10^3 cells in 100 μl complete medium per well were plated in 96-well plates, incubated overnight, and then treated with IFN α-2b or rSIFN-co at concentrations of 100 μg/ml, 50 μg/ml, 25 μg/ml, 12.5 μg/ml, 6.25 μg/ml, 3.13 μg/ml, 1.56 μg/ml, 0.78 μg/ml, 0.39 μg/ml, and 0.20 μg/ml, respectively, for about 48 hr, at which time the cells were harvested for analysis. The cell viability rate was evaluated by SunBio Am-Blue assay kit (Cat #: SBAB8025, Shanghai SBO Medical Biotechnology Co., Ltd, Shanghai, China). […] Results are shown in FIG. 5, in which viability of the tumor cells was expressed as a percentage relative to control cells that were not treated. […]

B1: rSIFN-co: Recombinant super-compound interferon; amino acid sequence SEQ ID NO: 1 (same as interferon alfacon-1), encoded by SEQ ID NO: 2, novel tertiary structure (protein)
chain: MCDLPQTHSLGNRRALILLAQMRRISPFSCLKDRHDFGFPQEEFDGNQFQKAQAISVLHEMIQQTFNLFSTKDSSAAWDESLLEKFYTELYQQLNDLEACVIQEVGVEETPLMNVDSILAVKKYFQRITLYLTEKKYSPCAWEVVRAEIMRSFSLSTNLQERLRRKE
modifications: Amino acid sequence of recombinant interferon
tolerability: signs of drug toxicity and changes in weight [1]: no signs of drug toxicity and minimal changes in weight | cell viability, time dependent effect (SW620 tumor cells): strongly decreased cell viability of SW620 cells in a time-dependent manner | relative expression level of CD24 mRNA (CD24 mRNA in A549 cells): about 0.4 | level of apoptosis-related molecular markers (procaspase-3, procaspase-8, PARP, cleaved caspase-3, cleaved caspase-8) [2]: neither of the interferons, IFN alpha-2b nor rSIFN-co, caused any reduction in the level of procaspase-3 or procaspase-8 or PARP, or induced any enhancement in the level of cleaved caspase-3 or cleaved caspase-8 | level of apoptosis-related molecular markers (procaspase-3, procaspase-8, PARP, cleaved caspase-3, cleaved caspase-8) [3]: neither of the interferons, IFN alpha-2b nor rSIFN-co, caused any reduction in the level of procaspase-3 or procaspase-8 or PARP, or induced any enhancement in the level of cleaved caspase-3 or cleaved caspase-8 | cell viability (different cancer cells): cell viability could not be detected
